Reference: the nanobody polyreactivity screen of Harvey et al. (2022)

Test: yeast display, Sf9 membrane polyspecificity reagent, FACS + sequencing; frameworks hold sequencing errors
Outline: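 Using colony PCR, genes from sorted yeast display clones were amplified, then sequenced on MiSeq at 2 × 250 and filtered by CDR length. The clones had been stained with 10% biotinylated, detergent-solubilized Sf9 membrane reagent for 1 hour at 4 °C and sorted by FACS into low and high (top ~1%) gates on anti-HA and streptavidin fluorescence. Polyreactivity labels come from the gate of origin.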

Sequence | polyreactivity (PSR sort gate)
QVHHVESGGGLVQAGGSLRISCAASGAIFFFNTMGWYRLAPGKERELVAVITSGGSTYYADSVKGRFTISRDNAKNTVYLQMNSLKPEDTAVYYCNAYTWGVGSSLDDVGYWGQGTQVTVSS | low polyreactivity
QVQLVESGGGLVQAGGSLRLSCAASGSIFTNNAMGWYRQAPGKERELVAGINISGDSTYYADSVKGRFTISRDNAKNTVYLQMNSLKPEDTAVYYCAAGDGYAGIYDYWGQGTQVTVSS | low polyreactivity
QVQLVESGGGLVQAGGSLRLSCAASGSNFDIYAMGWSRQAPGKERELVAAISWNGGDTTYADSVKGRFTISRDNAKNTVYLQLNSLKPEDTAVYYCAADLGYWVADYYWGQGTQVTVSS | high polyreactivity
QVQIVESGGGLVQAGGSLRLSCAASGFTFRVYAMGWYRPAPGKERELVAAISARGGSTYYADSVKVRFTISRDNAKNTVDLQMNSLKPEDTAVYYCAAEPSGKRSKFYYWGQGTQETVSS | high polyreactivity
QVQLVESGGGLVQAGGSLRLICAASGSIFISYAMGWYRQAPGKERELVAAISSGGSTNYADSVKGRFTISRDNAKNTVYLQMNSLKPEDTAVYYCAADGWLWSFTGDGWWFDYWGQGTQVTVSS | low polyreactivity
QVQLQESGGGLVQAGGTLRLSCAASGSFSADEDMGWYRQAQGKESEFVAGISVGGNTNYADSVKGRFTISRENAKNTVYLQINSLKPEDTAVYYCAVLQDVYDALDYWAQGTQVTVSS | high polyreactivity
QVQLVESGGGLVQAGGSLRISCAASGSNFTRYAMGWYRQAPGKERELVAAISNRGGRTYYADSVKGRFTISRDNAKNTVYLQMNSLKPEDTGVYYCNAATTRRIPQSDNYWGQGTQVTVSS | high polyreactivity
QGQLVESGGGLVQAGGSLRLSCAASGTFSPYAMGWYRPAPGKERELVAVITSNTGRTYADSVKGRFTISRDNAKNTVYLQMNSLKPEDTAVYYCASRSTYRHWYRTGSRFDYWGQGTQVTVSS | low polyreactivity
QVQLVESGGGLVQAGGSLRLSCAASGSILYVYAMGWYRPAPGKETELVAVITSGGSTNYADSVKGRFTISRDNAKNTVYLQMNSLKPEDTAVYYCAADPYSVYGGDYWGKGTQVTVSS | low polyreactivity
QVQLVESGGGLVQAGGSLRLSCAASGITFVDYAMGWYRQAPGKERELVAAITTGGSTNYADSVKGRFTISRDNAKNTVYLQMNSLKPEDTAVYYCNKRPVILYDYWGQGTQVTVSS | low polyreactivity
QVQLVESGGGLVQAGGSLRLSCAASGSTFYRYPMGWYRQAPGKERELVAGITGSGRRTYYADSVKGRFTISRDNAKNTVYFQMNSVKPEDTAVYYCNKRRASWSPAGGTYNYWGQGTQVTVSS | low polyreactivity
QVQLVESGGGLVQAGGSLRLSCAASGFVWNAMGWYRPAPGTERELVAAINWRGGSTNYADSVKGRFTISRDNAKNTVYLQMNSLKPEDTAVYYCAAYFFHYHFYQAAYDYWGQGTQVTVSS | low polyreactivity
QVQLVESGGGLVQAGGSLRLSCAASGLILGVYTMGWYRQAPGKEREFVASINYGGGSTYYADSVKGRFTISRDNAKNTVYLQMNSLKPEDTAVYYCNARSRWGGTRLYSYDYWGQGTQVTVSS | low polyreactivity
QVQLVESGGGLVQAGGSLRLSCAASGRIFSYNAMGWYRQAPGKERELVAAISSDGSTYYADSVKGRFTISRDNAKNTVYLQMNSLKPEDTAVYYCNADPGLYDVLYSSGDFDYWGQGTQVTVSS | low polyreactivity
QVQLVESGGGLVQAGGSLRLSCAASGITLGAYAMGWYRQAPGKERELVARIRIGGSTYYADSVKGRFTISRDNAKNTVYLQMNSLKPEDTAVYYCNRDFWYGVATGREFYLYDYWGQGTQVTVSS | low polyreactivity
QVQLVESGGGLVQAGGSLRLTCAASGFTFPDKAMGWYRQAPGNERELVAALTTSGGRTYYADSVKGRFTISRDNAKNTVYLQMNRLKPEDTAVYYCARPSRQSHWYYYWGQGTQVTVSS | high polyreactivity
QVQLVESGGGLVQAGGSLRLSCAASGSIFGYYAMGWYRQAPGKEREFDADINSRDGGTYYADSVKGRFTISRDNAKNTVYLQMNSLKPEDTAVYYCAAPYYAAWVAVAIEYDYWGQGTQVTVSS | low polyreactivity
QVQRVESGGGLVQAGGSLRLSCAASGFIFRRYAMGWYRQAPGKERELVASISSGGNTNYADSVKGRFTISRDNAKNTVYLQMNSLKPEDTAVYYCNDEYRWIAYGYWGQGTQVTVSS | high polyreactivity
QVQLVESGGGLVQAGGSLRLSCAASGFTFGANVMGWYRQAPGKERELVAAINTRGSRTYYADSVKGRFTISRDIAKNTVYLQMNSLKPEDTAVYYCAAALRKEYDYWGQGTQVTVSS | high polyreactivity
QVQLVESVGGLDQAGGSLRLSCAASGSTFSLYTIGWYRQAPGKERELVASISRGGGSTYYADSVKGRFTISRDNAKNTVYLQMNSLKPEDTAVYYCASGTLYFYSHNPEDDFDYWGQGTQVTVSS | high polyreactivity
QVQLVESGGGLVQAGGSLRLSCAASGSTFAPYAMGWYRQAPGKERELVATISFRGGSTYYADSVKGRFTISRDNEMNTVFLEMNNLKPEDTAVYYCNAQRRYPYGYGYWGQGTQVTVSS | high polyreactivity
QVQLVESGGGLVQEGGSLRLSCAASGSTFPLYTMGWYRQAPGKERELVATISRGGSTYYADSVKGRFTISRDNAKNTVYLQMNSLKPEDTAVYYCAARPFGFKFDYWGQGTQVTVSA | low polyreactivity

Sequence | polyreactivity (PSR sort gate)
QVHLVESGGGLVQAGGSLRLSCAASGSIFAAYTMGWYRRAPGKERELVAAISVSTVSTYYADSVKGRFTISRDNAKNTVYLQMNSLNPEDTAVYYCNADATDSYPEKDEHDSWGQGTQVTVSS | low polyreactivity
QVDLVESGGGLVQAGGSLRLSCAASGRTFQFNGMGWYRQAPVKERELVAGITSGGSTYYADSVKGRFTISRDNAKTTVYLQMISLKPEDTAVYYCAKDDPYFRGSPYFGRYPYGYWGQGTEVTVSS | high polyreactivity
QVQLVESGGGLVQAGGSLRLSCAASGFIYFGNAMGWYRQAPGKERELVAAINSNGSSTYYADSVKGRFTISRDNAKNTVYFLMNSLQPEDTAVYYCAKKISVHEGAWPSNPDGDYWGQGTQVTVSS | low polyreactivity
QVQLVESGGGLVQAGGSLRLSCAASGIIFYWNAMGWYRQAPGKERELVAGITRGGSTYYADSVKGRFTISRDNATNTVYLLMNSLKPEDTAVYYCAKRQASRRVSYSRYDYWGQGTQVTVSS | high polyreactivity
QVHLVESGGGLVQAGGSLRLSCAASGRIFADYAMGWYRHAPGKERELVAAISSTSSTNYADSVKGRFTISRDNAKNTVYLQMKSLKPEDTAVYYCAATAGSLTADYVSYTYNYWGQGTQVTVSS | low polyreactivity
QVQLVESGGGLVQAGGSLRLSCAASGSTFGYYAMGWDRQAPGKERELVAAISRRVGSTYYADSVKGRFTISRDNAKNTVSLQMNSLNPEDTAVYYWASTSVNPWRGDYDMYYWGQGTQVTVSS | high polyreactivity
QVQLVESGGGLVQAGGSLRLSCAASGLIFAYNAMGWYRQAPGKERELVAAITGGGDGTYYADSVKGRFTISRDNAKNTVYLQMNSLKPEDTAVYYCAADFGNSPYIKVYYYWGQGTQVTVSS | low polyreactivity
QVQLVESGGGLVQAGGSLRLSCAASGRTFEWYALGWYRQAPGKERELVAAIRSGGGTNYADSVKGRFTISPDNAKNTVYLQMNSLKPEDTAVYYCAKEWAGGLYDYWGQGTQVTVTS | low polyreactivity
QVQLVESGGGLVQAGGSLRLSCAASGFTFGNYAMGWYRQAPGKERELVAVISRSGGNTYYADSVKGRFTISRDNAKNTVYLQMNSLKPEDTAVYYCAATLVGKVFRRFDYWGQGTQVTVSS | high polyreactivity
QVQLVESGGGLVQAGGSLRLSCAASGITFITYVMGWYRQAPGKERELVAAISLRGGRTSYADSVKGRFTISRDNAKNTVYLQMNSLKPEDTAVYYCAARAYYTRYDYWGQGTQVTVSS | high polyreactivity
QVQLVESGGGLVQAGGSLRLSCAASGSTSRINAMGWYRQAPGKERELVAGIRANGGRTYYADSVKGRFTISRDNAKNTVYLQMNSLKPEDTAVYYCNKRNWPAEDSWGQGTQVTVSS | high polyreactivity
QVQLVESGGGLVQAGGSLRLSCAASGSTFDPYAMGWYRQAPGKESELVAAISRNGGRTYYADSVKGRFTISRDNAKNTVYLQMNSLTPEDTAVYYCAARSTGYGSTGRLLWYGHWGQGTQGTVSS | high polyreactivity
QVQLVESGGGLVQAGGSLRLSCAASGSTFGSYAMGWYRQAPGKERELVAAITSSGGRTYYADSVKGRFTISRDNSKNTVYLQMNSLKPEDTAVYYCAARPRGGVFEYGYWGQGTQVTVSS | high polyreactivity
QVQLVESGGGLVQAGGSLRLSCAASGSILYYALGWYRQAPGKESELVATITRGGSTYYADSVKGRFTISRDNAKNTVYLQMNSLKPEDTAVYYCAARRAVRVGYYWHDISSYDYWGQGTQVTVSS | low polyreactivity
QVQLVESGGGLVQAGGSLRLSCAASGRIFYTYVMGWYRQAPGKERELVAAITRRGGSTNYADSVKGRFTISRDNAKNTVYLQMNSLKPEDTAVYYCAAGTYKGSSVYGMDYWGQGTQVTVSS | high polyreactivity
QVQLVESGGGLVQAGGSLRLSCAASGRTFGLYAMGWYRQAPGKERELVAAISYSGGRTYYADSVKGRFTISRDNAKKTVYLQRNSLKPEDTAVYYCNKAWFPYYYYRFDYWGQGTQVTVSS | high polyreactivity
QVQLVESGGGLVQAGGSLRLSCAASGRTFVDYVMGWYRQAPGKERELVAAISRSGSTYYADSVKGRFTISRDNAKNTVYLQMNSLKPEDTAVYYCAASSVALPWYVSWYVYGYEYWGQGTQVTVSS | low polyreactivity
QVQLVESGGGLVQAGGSLRLSCAASGSIFSGYTMGWYRQAPGKERELVAAISSDGSTTYADSVKGRFTISRDNAKNTVYLQMNSLNPEDTADYYCAAYPYWEGSYGGYDYWGQGTEVTVSS | low polyreactivity
QVQLVESGGGLVQAGGSLRLSCAASGSIFVNNAMGWYRQAPGKERELVAAIRRSGGNTYYADSVKGRFTISRDNAKNTVYLQLNSLKPEDTAVYYCNVVRRSDSIRAKSRDYWGQGTQVTVSS | high polyreactivity
QVQLVESGGGLVQAGGSLRLSCAASGFTFPSYAMGWYRQAPGKERELGAVISRRGGSTYYADSVKGRFTISRDNAKNTVYLQLNSLKPEDTAVYYCARPRQPGSLYGYWGQGTQVTVSS | high polyreactivity
QVQLVESGGGLVQAGGSLRLSCAATGSIFIRYAIGWYRHEPGKERELVAAITSTGSTSYADSVKWRFTISRDNAKNTVYLQMNSLKPEDTAVYYCAAAGFWHGYFGYGYWGQGTQVTVSS | low polyreactivity
